We go through two molecules from paper doi:10.1101/2020.07.10.197400 (bioRxiv, 2020).

Data set [1] concerns the target Trx-kindlin2_F2 (residues 260 – 572) without PH domain (mouse). The experiment in a line: SEC-MALS. Background: Size exclusion chromatography separates by hydrodynamic size, large species first.
Data set [2] deals with the molecule itself. The experiment in a line: SEC-MALS.

In the case of “Trx-kindlin2_F2 (residues 260 – 572) without PH domain (domain or fragment)”, the stoichiometry N in data set [1] turned out to be 2.

B1: GCN4-tetramerized β1-integrin tail (domain or fragment)
chain: MKQIEDKLEEILSKLYHIENELARIKKLLGERIIHDRREFAKFEKEKMNAKWDTGENPIYKSAVTTVVNPKYEGK
As for B1, the “stoichiometry N” value in data set [2] was determined as 4.

One may read the stoichiometry N as a count of units in the complex or per binding partner.
